From paper PMC8558138
Several values for one entry are separate records, joined by “and”; a condition that tells them apart may be missing. Equal entries are not always repeated. Where two headings read alike, the source gives them in different places.

Columns and labels:
[1] = target: pHERV-W ENV soluble antigen from MS brain active lesions (human (endogenous in MS brain lesions)); assay: automated capillary Western blot (Simple Western, WES); soluble fraction of frozen brain white matter blocks (MS active lesions), fos-cholin 16 extraction, >= 120 kDa enriched on AMICON, denaturing conditions; detection with GN_mAb_Env01-biotin, or GN_mAb_Env04 after deglycosylation
[2] = target: Purified recombinant full-length HERV-W ENV protein (pHERV-W ENV) produced in E. coli (human); assay: automated capillary Western blot (Simple Western, WES); purified rENV monomers incubated in serum-free DMEM with sulfatides from bovine brain; detection with GN_mAb_Env01, or GN_mAb_Env04 after deglycosylation
[3] = target: Purified recombinant full-length HERV-W ENV protein (pHERV-W ENV) produced in E. coli (human); assay: automated capillary Western blot (Simple Western, WES); purified rENV incubated up to 24 h at 37 °C in DMEM with 10% FBS (also with 1.5% SDS overnight: only a low proportion of hexamer); samples denatured at 95 °C; detection with GN_mAb_Env01; denaturation-resistant oligomers
[4] = target: pHERV-W ENV expressed in transfected HEK293T cells (pCMV-HERV-W ENV) (human); assay: automated capillary Western blot (Simple Western, WES); lysates of transfected HEK293T cells in RIPA with 1% fos-cholin 16, soluble and insoluble fractions, denatured at 95 °C; 12-230 kDa and 66-440 kDa matrices; detection with GN_mAb_Env01, GN_mAb_Env04, GN_mAb_Env-K01 or anti-FLAG
[5] = target: pHERV-W ENV expressed in transfected HEK293T cells (pCMV-HERV-W ENV) (human); assay: as above; remark: listed apart in the source

pHERV-W ENV soluble antigen from MS brain active lesions (natural protein)
stoichiometry N [1]: 6

Purified recombinant full-length HERV-W ENV protein (pHERV-W ENV) produced in E. coli (natural protein)
stoichiometry N [2]: 6
stoichiometry N [3]: 6 and 2

pHERV-W ENV expressed in transfected HEK293T cells (pCMV-HERV-W ENV) (natural protein)
stoichiometry N [4]: 3
stoichiometry N [5]: 2
